From patent publication US20240132626A1 (Eli Lilly, published 2024)

Columns and labels:
Test in all cases: SPR, captured via anti-human kappa, soluble ECD injected
[1] = biological target: T1, Soluble human EGFR ECD protein (human, UniProt P00533 25-645)
T1 construct: extracellular domain; His-tagged

[2] = biological target: T2, Soluble human cMet extracellular domain (ECD) protein (human, UniProt P08581 25-932)
T2 construct: extracellular domain; His-tagged

[3] = biological target: T3, Soluble human HER-2 extracellular domain (ECD) protein (human, UniProt P04626 23-652)
T3 construct: extracellular domain; His-tagged

T2 sequence (P08581 25-932): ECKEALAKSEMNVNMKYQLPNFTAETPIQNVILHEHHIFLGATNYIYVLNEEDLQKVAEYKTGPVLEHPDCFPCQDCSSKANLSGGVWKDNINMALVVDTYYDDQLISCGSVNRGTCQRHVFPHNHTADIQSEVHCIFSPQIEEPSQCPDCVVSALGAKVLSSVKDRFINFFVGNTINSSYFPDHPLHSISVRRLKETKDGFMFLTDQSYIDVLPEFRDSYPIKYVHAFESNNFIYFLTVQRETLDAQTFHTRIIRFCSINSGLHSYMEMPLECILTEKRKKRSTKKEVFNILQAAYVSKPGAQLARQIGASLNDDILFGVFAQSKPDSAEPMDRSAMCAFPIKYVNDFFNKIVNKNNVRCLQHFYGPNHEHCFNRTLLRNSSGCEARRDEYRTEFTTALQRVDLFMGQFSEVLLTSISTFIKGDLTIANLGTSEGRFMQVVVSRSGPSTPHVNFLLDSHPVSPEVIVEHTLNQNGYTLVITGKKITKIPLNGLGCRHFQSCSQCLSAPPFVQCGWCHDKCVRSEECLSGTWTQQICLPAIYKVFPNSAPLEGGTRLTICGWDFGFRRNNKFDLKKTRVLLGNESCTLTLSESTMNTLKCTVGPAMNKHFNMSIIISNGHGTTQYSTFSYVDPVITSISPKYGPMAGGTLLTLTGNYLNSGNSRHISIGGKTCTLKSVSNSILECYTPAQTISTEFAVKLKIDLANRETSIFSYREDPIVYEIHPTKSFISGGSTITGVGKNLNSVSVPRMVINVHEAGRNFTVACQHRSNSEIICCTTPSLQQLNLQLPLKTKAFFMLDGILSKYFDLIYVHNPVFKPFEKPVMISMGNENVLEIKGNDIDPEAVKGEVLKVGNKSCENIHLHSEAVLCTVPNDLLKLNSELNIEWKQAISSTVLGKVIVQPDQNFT

Kd [1]: 15 nM | koff [1]: 0.0055 s⁻¹ | kon [1]: 360000 M⁻¹ s⁻¹ | Kd [2]: 0.77 nM | koff [2]: 0.00013 s⁻¹ | kon [2]: 170000 M⁻¹ s⁻¹ | Kd [3]: 0.8 nM | koff [3]: 0.00022 s⁻¹ | kon [3]: 260000 M⁻¹ s⁻¹
B1: HER-2 X EGFR X cMet TsAb_HHH (other)
heavy: EVQLVESGGGLVQPGGSLRLSCAASGFTFTDYTMDWVRKAPGKGLEWVADVNPNSGGSIYNQEFKGRFTLSVDRSKNTLYLQMNSLRAEDTAVYYCARNLGPSFYFDYWGQGTLVTVSSASTKGPSVFPLAPSSKSTSGGTAALGCLVKDYFPEPVTVSWNSGALTSGVATGPAVLQSSGLYSLSSVVTVPSSSLGTQTYICNVNHKPSNTKVDKKVEPKSCGGGGSGGGGSGGGGSQVQLVQSGAEVKKPGASVKVSCKASGYTFTSHWMHWVRYAPGQGLEWIGEFNPSNGRTNYNEKFKSKATMTVDTSTNTAYMELSSLRSEDTAVYYCASRDYDYDGRYFDYWGQGTLVTVSSASTKGPSVFPLAPCSKSTSGGTAALGCLVKDYFPEPVTVSWNSGALTSGVHTFPAVLQSSGLYSLSSVVTVPSSSLGTQTYICNVNHKPSNTKVDKKVEPDSGGGGGSGGGGSGGGGSEVQLVESGGGLVQPGGSLRLSCAASGYTFTSYWLHWVRQAPGKGLEWVGMIDPSNSDTRFNPNFKDRFTISADTSKNTAYLQMNSLRAEDTAVYYCATYRSYVTPLDYWGRGTLVTVSSASTKGPSVFPLAPSSKSTSGGTAALGCLVADYFPEPVTVSWNSGALTSGVHTFPAVLQSSGLYSLSSVVTVPSSSLGTQTYICNVNHKPSNTKVDERVEPKSCHHHHHHHH
light 1: RIQMTQSPSSLSASVGDRVTITCKASQDVSIGVAWYQDKPGKAPKLLIYSASYRYTGVPSRFSGSGSGTDFTLTISSLQPEDFATYYCQQYYIYPYTFGQGTKVEIKGQPKAAPSVTLFPPSSEELQANKATLVCYISDFYPGAVTVAWKADSSPVKAGVETTTPSKQSNNKYAAWSYLSLTPEQWKSHRSYSCQVTHEGSTVEKTVAPTEC
light 2: DIQMTQSPSSLSASVGDRVTITCSASSSVTYMYWYQRKPGKAPKLLIYDTSNLASGVPSRFSGSGSGTDYTFTISSLQPEDIATYYCQQWSSHIFTFGQGTKVEIKRTVAAPSVFIFPPSKEQLKSGTASVVCLLNNFYPREAKVQWKVDNALQSGNSQESVTEQDSKDSTYSLSSTLTLSKADYEKHKVYACEVTHQGLSSPVTKSFNRGEC
light 3: DIQMTQSPSSLSASVGDRVTITCKSSQSLLYTSSQKNYLAWYQQKPGDAPKLLIYWASTRESGVPSRFSGSGSGTDFTLTISSLQPEDFATYYCQQYYAYPWTFGQGTKVEIKRTVAAPSVFIFPPSDKQLKSGTARVVCLLNNFYPREAKVQWKVDNALQSGNSQESVTEQDSKDSTYSLISTLTLSKADYEKHKVYACEVTHQGLSSPVTKSFNRGEC
notes: Tandem Fab trispecific antibody without Fc
